From the supplement of paper PMC9233669
This sample holds only a part of the variants without activity.

Tests used:
[1] = test system: biotinyl-Ile-oxazolone; test: self-aminoacylation, catalytic enhancement (BIO) (fold over background); higher = more active; k-Seq, kA / k0A0; sequences stand for … in GGGAAUGGAUCCACAUCUACGAAUUC…UUCACUGCAGACUUGACGAAGCUG
Summary of the method: (§1)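 Mutagenized RNA pools with a 21-nt variable region (0.43 μM) were reacted with each biotinyl-aminoacyl-oxazolone at 2–1250 μM for 90 minutes at room temperature, in 50 μL HEPES/NaCl/KCl/MgCl2/CaCl2 buffer containing 5% acetonitrile at pH 6.9–7.0. RNA captured on streptavidin was quantified by triplicate qPCR and by Illumina sequencing. The fraction reacted for each sequence was fit to a pseudo-first-order model with bootstrapping, and catalytic enhancement is the median kA divided by the uncatalyzed rate, taken as the low-activity peak of a bimodal Gaussian fit.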

[2] = test system: biotinyl-Trp-oxazolone; test: self-aminoacylation, catalytic enhancement (BWO) (fold over background); higher = more active; k-Seq, kA / k0A0; sequences stand for … in GGGAAUGGAUCCACAUCUACGAAUUC…UUCACUGCAGACUUGACGAAGCUG
Summary of the method: as §1

[3] = test system: biotinyl-Met-oxazolone; test: self-aminoacylation, catalytic enhancement (BMO) (fold over background); higher = more active; k-Seq, kA / k0A0; sequences stand for … in GGGAAUGGAUCCACAUCUACGAAUUC…UUCACUGCAGACUUGACGAAGCUG
Summary of the method: as §1

[4] = test system: biotinyl-Phe-oxazolone; test: self-aminoacylation, catalytic enhancement (BFO) (fold over background); higher = more active; k-Seq, kA / k0A0; sequences stand for … in GGGAAUGGAUCCACAUCUACGAAUUC…UUCACUGCAGACUUGACGAAGCUG
Summary of the method: as §1

[5] = test system: biotinyl-Leu-oxazolone; test: self-aminoacylation, catalytic enhancement (BLO) (fold over background); higher = more active; k-Seq, kA / k0A0; sequences stand for … in GGGAAUGGAUCCACAUCUACGAAUUC…UUCACUGCAGACUUGACGAAGCUG
Summary of the method: as §1

[6] = test system: biotinyl-Val-oxazolone; test: self-aminoacylation, catalytic enhancement (BVO) (fold over background); higher = more active; k-Seq, kA / k0A0; sequences stand for … in GGGAAUGGAUCCACAUCUACGAAUUC…UUCACUGCAGACUUGACGAAGCUG
Summary of the method: as §1

| Sequence | self-aminoacylation [1] | self-aminoacylation [2] | self-aminoacylation [3] | self-aminoacylation [4] | self-aminoacylation [5] | self-aminoacylation [6] |
| --- | --- | --- | --- | --- | --- | --- |
| AAGUGUGCUAAUGGUCGCAAG [Fam3.1 aminoacylation ribozyme variant] | 0.864 | 1.21 | 0.926 | 2.15 | 0.792 | 1.06 |
| CCACACUUCAAGCAAUCGUUG [Fam1B.1 aminoacylation ribozyme variant] | 0.944 | 1.15 | 0.877 | 1.26 | 0.776 | 0.908 |
| AUUAACCUGGUCAUCGUGUGA [Fam2.1 aminoacylation ribozyme variant] | 1.69 | 3.69 | 3.13 | 13.1 | 3.13 | 1.82 |
| GUUACCCUGGACAUCGAGUGA [Fam2.1 aminoacylation ribozyme variant] | 4.6 | 9.84 | 8.05 | 48 | 9.14 | 4.58 |
| AUUCACCUAGGUCCUCGGGGG [Fam2.2 aminoacylation ribozyme variant] | 2.8 | 2.42 | 2.98 | 9.54 | 2.98 | 2.85 |
| AUUACCAUGGUCAUCGAGUAA [Fam2.1 aminoacylation ribozyme variant] | 1.41 | 1.28 | 1.7 | 1.09 | 1.33 | 1.42 |
| CUACUUCAUACAAUCGGUCCG [Fam1A.1 aminoacylation ribozyme variant] | 0.675 | 0.49 | 0.76 | 0.5 | 0.669 | 0.653 |
| AUUCCCCUGGUCAUCGAGUGC [Fam2.1 aminoacylation ribozyme variant] | 1.36 | 2.07 | 1.35 | 1.33 | 1.63 | 1.64 |
| AUUCAGCUCGGUCAUCGGGUG [Fam2.2 aminoacylation ribozyme variant] | 4.88 | 7.34 | 9.53 | 78.7 | 9.01 | 5.43 |
| AUUCACCUAGGUCAUCCGGUA [Fam2.2 aminoacylation ribozyme variant] | 2.36 | 1.87 | 2.17 | 6.52 | 2.3 | 2.3 |
| CCACUUCGAACAAUCGGUCUG [Fam1A.1 aminoacylation ribozyme variant] | 1.15 | 1.32 | 1.77 | 1.26 | 1.41 | 1.24 |
| AUUACUCUGGUCAUGGAGUGA [Fam2.1 aminoacylation ribozyme variant] | 2.42 | 3.35 | 3.28 | 3.58 | 3.98 | 2.05 |
| AUUACCCUGGUCAUCAAGGGA [Fam2.1 aminoacylation ribozyme variant] | 0.87 | 1.2 | 0.807 | 1.11 | 0.752 | 1.13 |
| CUUCACCUAGGUCAUCCGGUG [Fam2.2 aminoacylation ribozyme variant] | 5.77 | 6.39 | 6.47 | 34.5 | 8.19 | 4.94 |
| CGACACUUCAAGCAAUCGGGC [Fam1B.1 aminoacylation ribozyme variant] | 1.91 | 2.12 | 1.36 | 8.3 | 1.85 | 2.43 |
| AUUCAUCAAGGUCAUCGGGUG [Fam2.2 aminoacylation ribozyme variant] | 5.94 | 10.2 | 9.84 | 74.7 | 10.9 | 5.94 |
| GUUCACCUAGGUCAUCGGGUG [Fam2.2 aminoacylation ribozyme variant] | 13.7 | 20.1 | 25.5 | 180 | 32.5 | 12.5 |
| CUACUUCGAACGAUCGGUCUG [Fam1A.1 aminoacylation ribozyme variant] | 0.846 | 0.707 | 0.779 | 0.279 | 1.06 | 1.04 |
| ACUUACCUAGGUCAUCGGGUG [Fam2.2 aminoacylation ribozyme variant] | 7.28 | 10.1 | 10.6 | 48.7 | 10.8 | 5.61 |
| AUCUACCUAGGUCAUCGGGUG [Fam2.2 aminoacylation ribozyme variant] | 6.54 | 8.66 | 10 | 51.1 | 12.1 | 6.18 |
| CUACACUUCAAGCAAUCGGUA [Fam1B.1 aminoacylation ribozyme variant] | 0.739 | 0.846 | 0.709 | 1.37 | 0.755 | 0.65 |
| AUACUUCAAAUAAUCGGUCUG [Fam1A.1 aminoacylation ribozyme variant] | 0.992 | 4.17 | 0.965 | 5.26 | 0.998 | 0.877 |
| AAGUUUGCUAAUUGUCGCAGG [Fam3.1 aminoacylation ribozyme variant] | 1.19 | 1.34 | 1.43 | 2.72 | 1.45 | 1.3 |
| AGGUUUGCUAAUAGUCGUAAG [Fam3.1 aminoacylation ribozyme variant] | 1.22 | 7.24 | 1.23 | 29.2 | 1.1 | 1.08 |
| CCACACUUCGAGCAAUCGGUU [Fam1B.1 aminoacylation ribozyme variant] | 1.41 | 1.65 | 1.83 | 0.768 | 1.1 | 1.63 |
| AUUCACAUAGGCCAUCGGGUG [Fam2.2 aminoacylation ribozyme variant] | 3.23 | 4.23 | 4.86 | 34.7 | 5.85 | 3.41 |
